Assay results as given in publication PMC4794775.

Columns and labels:
[1] = target: RopB-CTD R226A (Streptococcus pyogenes (group A Streptococcus) strain MGAS10870); assay: SEC
[2] = target: full-length RopB (Streptococcus pyogenes (group A Streptococcus) strain MGAS10870)
[3] = target: RopB-CTD Y224A (Streptococcus pyogenes (group A Streptococcus) strain MGAS10870); assay: SEC
[4] = target: RopB-CTD C227Y (Streptococcus pyogenes (group A Streptococcus) strain MGAS10870); assay: SEC
[5] = target: RopB-CTD Y224H (Streptococcus pyogenes (group A Streptococcus) strain MGAS10870); assay: SEC
[6] = target: RopB-CTD R226Q (Streptococcus pyogenes (group A Streptococcus) strain MGAS10870); assay: SEC
[7] = target: RopB C-terminal domain (RopB-CTD, amino acids 56-280), wild type (Streptococcus pyogenes (group A Streptococcus) strain MGAS10870); assay: SEC
[8] = target: RopB-CTD I255A (Streptococcus pyogenes (group A Streptococcus) strain MGAS10870); assay: SEC
[9] = target: RopB-CTD C222A (Streptococcus pyogenes (group A Streptococcus) strain MGAS10870); assay: SEC

Substance: RopB-CTD R226A (domain or fragment)
- stoichiometry N [1]: 2

Substance: full-length RopB (natural protein)
- stoichiometry N [2]: > 6

Substance: RopB-CTD Y224A (domain or fragment)
- stoichiometry N [3]: 2

Substance: RopB-CTD C227Y (domain or fragment)
- stoichiometry N [4]: 2

Substance: RopB-CTD Y224H (domain or fragment)
- stoichiometry N [5]: 2

Substance: RopB-CTD R226Q (domain or fragment)
- stoichiometry N [6]: 2

Substance: RopB C-terminal domain (RopB-CTD, amino acids 56-280), wild type (domain or fragment)
- stoichiometry N [7]: 2

Substance: RopB-CTD I255A (domain or fragment)
- stoichiometry N [8]: 2

Substance: RopB-CTD C222A (domain or fragment)
- stoichiometry N [9]: 2
